Measured values: patent publication US12098206B2, “PDGF receptor antibody and use thereof” (Seoul National University R&DB Foundation, priority 2018, dated 2024)

T1: mPDGFR-β (Mus musculus, UniProt P05622)
T1 construct: mPDGFR-β
T1 sequence (P05622 32-530): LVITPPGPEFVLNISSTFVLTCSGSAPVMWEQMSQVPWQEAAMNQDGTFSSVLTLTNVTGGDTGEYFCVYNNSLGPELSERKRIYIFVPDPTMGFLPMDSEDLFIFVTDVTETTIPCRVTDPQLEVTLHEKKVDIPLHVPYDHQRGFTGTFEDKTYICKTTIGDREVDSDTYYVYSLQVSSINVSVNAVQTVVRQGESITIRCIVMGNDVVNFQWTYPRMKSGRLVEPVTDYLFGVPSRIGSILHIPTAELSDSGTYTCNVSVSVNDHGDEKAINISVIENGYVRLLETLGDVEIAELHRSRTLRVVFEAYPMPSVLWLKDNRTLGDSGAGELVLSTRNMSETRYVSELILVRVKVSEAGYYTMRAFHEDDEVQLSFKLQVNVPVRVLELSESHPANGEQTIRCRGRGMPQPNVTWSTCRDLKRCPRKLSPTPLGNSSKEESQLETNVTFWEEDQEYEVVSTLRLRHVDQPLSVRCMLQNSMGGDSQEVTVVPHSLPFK


Columns and labels:
[1] = target: T1, mPDGFR-β; test: Cross-species enzyme immunoassay, mPDGFR-β; format: binding; settings: 100 nM; FIG. 17
Method: 100 ng of hPDGFR-β, mPDGFR-β, rhesus PDGFR-β (90215-C02H, Sino Biological Inc. Beijing, China), cynomolgus monkey PDGFR-β, Sus scrofa PDGFR-β-Fc chimera or TNF-α receptor extracellular domain-human Fc fusion protein was coated with 4° C. temperature O/N. After blocking the wells, sequential culture of the anti-hPDGFR-β scFv-Cκ-scFv fusion protein and the HRP conjugated anti-human Cκ antibody was followed in the same manner as in Example 3.
FIG. 17 is a graph showing an experiment of the cross-species reaction of the bispecific antibody against the anti-hPDGFR-β antibody according to the present invention. On the microtiter plates coated with hPDGFR-β, mPDGFR-β, Rhesus PDGFR-β, Cynomolgus monkey PDGFR-β, Sus scrofa PDGFR-β and control Fc coated, the bispecific antibody containing anti-hPDGFR-β antibody according to the present invention (100 nM) was reacted and the amount of bound bispecific antibody was measured using HRP conjugated anti-human Cκ antibody and TMB.

[2] = target: T2, human pericyte cells expressing hPDGFR-β (Homo sapiens, UniProt P09619); test: Flow cytometry binding to human pericyte cells expressing hPDGFR-β; settings: 100 nM antibody, FIG. 13b
T2 construct: host or cells: human pericyte cells
T2 sequence (P09619 33-1106): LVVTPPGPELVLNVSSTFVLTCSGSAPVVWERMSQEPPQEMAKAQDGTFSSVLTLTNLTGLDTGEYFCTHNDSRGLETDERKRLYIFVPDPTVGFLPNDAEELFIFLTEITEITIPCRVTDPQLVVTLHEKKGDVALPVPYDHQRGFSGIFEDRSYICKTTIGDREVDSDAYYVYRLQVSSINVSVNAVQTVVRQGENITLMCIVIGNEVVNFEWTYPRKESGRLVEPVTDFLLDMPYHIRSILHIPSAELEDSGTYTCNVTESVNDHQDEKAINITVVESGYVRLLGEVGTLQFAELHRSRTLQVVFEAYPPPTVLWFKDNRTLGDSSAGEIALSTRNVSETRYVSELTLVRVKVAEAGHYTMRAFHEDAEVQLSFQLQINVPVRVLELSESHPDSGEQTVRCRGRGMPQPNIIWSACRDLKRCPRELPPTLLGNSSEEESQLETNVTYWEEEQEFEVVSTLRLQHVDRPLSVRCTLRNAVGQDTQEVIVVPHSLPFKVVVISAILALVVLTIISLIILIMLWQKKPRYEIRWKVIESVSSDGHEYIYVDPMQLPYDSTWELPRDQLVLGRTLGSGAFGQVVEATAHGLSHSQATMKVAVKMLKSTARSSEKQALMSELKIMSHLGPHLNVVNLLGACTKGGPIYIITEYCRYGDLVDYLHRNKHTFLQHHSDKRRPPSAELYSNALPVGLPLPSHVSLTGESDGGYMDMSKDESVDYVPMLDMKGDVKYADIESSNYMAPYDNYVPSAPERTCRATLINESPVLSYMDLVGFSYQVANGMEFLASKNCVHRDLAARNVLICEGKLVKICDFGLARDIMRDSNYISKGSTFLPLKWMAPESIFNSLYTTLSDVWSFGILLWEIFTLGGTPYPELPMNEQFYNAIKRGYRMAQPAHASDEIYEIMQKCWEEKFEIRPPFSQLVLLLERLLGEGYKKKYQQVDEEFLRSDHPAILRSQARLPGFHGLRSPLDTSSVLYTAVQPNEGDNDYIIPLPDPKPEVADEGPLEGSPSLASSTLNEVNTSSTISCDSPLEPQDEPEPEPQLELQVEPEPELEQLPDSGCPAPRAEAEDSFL
Method: Human pericyte cells were cultured at 4° C. for 1 hour using the bispecific antibody of scFv-Cκ-scFv fusion protein (100 nM) under two different conditions with or without hPDGF-BB-biotin (100 nM, BT220; R&D systems). The cells were washed 4 times with flow cytometry buffer and cultured with allophycocyanin (APC)-anti-human Cκ antibody (clone TB28-2; BD Biosciences, San Jose, CA, USA) and streptavidin-phycoerythrin (PE) (12-4317-87; eBioscience, ThermoFisher). After washing, it was classified and analyzed with a FACS Canto II instrument (BD Biosciences, San Jose, CA, USA). 10,000 cells were used for each measurement, and the results were analyzed by FlowJo (Tree Star, Ashland, OR, USA).

[3] = system: A-431 cells; test: Cytotoxicity in A-431 cells not expressing hPDGFR-β; format: cell-based; settings: complex with cot-duo (DAR4); FIG. 16
Method: FIG. 16 is a graph showing that cytotoxicity assays of bispecific antibody related with anti-hPDGFR-β antibody complexed with cot-duo complexes on the cells not expressing hPDGFR-β. A-431 cells were treated with anti-hPDGFR-β x cotinine fusion protein and cot-duo (DAR4). The cellular ATP levels were measured to determine relative cell viability. Bispecific anti-mCD154 x cotinine scFv-Cκ-scFv fusion protein was used as a negative control. DMSO was used as a vehicle control of cot-duo. Results are shown as the mean±SD acquired from three repetitive experiments.
All of the anti-hPDGFR-β x cotinine scFv-Cκ-scFv fusion proteins had not higher toxicity than the control antibody anti-mCD154 x cotinine scFv-Cκ-scFv fusion protein (FIG. 16). Therefore, as a result of anti-proliferative analysis result, the bispecific antibody/cot-duo complex had higher cytotoxicity in the human pericyte cell lines expressing hPDGFR-β, compared to the control anti-mCD154 x cotinine scFv-Cκ-scFv, but there was no difference in cytotoxicity in A-431 not expressing hPDGFR-β, compared to the control anti-mCD154 x cotinine scFv-Cκ-scFv.

[4] = target: PDGFR-β (Homo sapiens, UniProt P09619); test: Competition enzyme immunoassay with hPDGF-BB; format: binding; set-up: made in house; settings: hPDGF-BB 100 nM
PDGFR-β, sequence (P09619 33-531): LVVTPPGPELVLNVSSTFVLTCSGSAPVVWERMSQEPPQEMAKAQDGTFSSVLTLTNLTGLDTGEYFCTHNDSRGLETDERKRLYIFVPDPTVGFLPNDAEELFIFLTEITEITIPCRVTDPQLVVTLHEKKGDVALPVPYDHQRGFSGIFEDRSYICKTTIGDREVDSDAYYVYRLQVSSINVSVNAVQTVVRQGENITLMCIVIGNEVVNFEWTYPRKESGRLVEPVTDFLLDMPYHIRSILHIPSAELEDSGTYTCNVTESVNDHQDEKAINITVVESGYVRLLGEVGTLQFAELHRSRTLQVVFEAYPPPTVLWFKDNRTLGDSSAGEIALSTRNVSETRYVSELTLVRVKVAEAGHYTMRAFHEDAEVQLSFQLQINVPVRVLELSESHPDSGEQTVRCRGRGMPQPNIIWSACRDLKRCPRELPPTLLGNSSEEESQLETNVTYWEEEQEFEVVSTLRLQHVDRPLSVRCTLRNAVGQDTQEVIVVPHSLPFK
Method: In order to confirm the competition between the bispecific antibody scFv-Cκ-scFv and hPDGF-BB, as in Example 3, hPDGFR-β-Fc chimera was coated on a microtiter plate and then blocked. The microtiter plate was treated with various concentrations of the bispecific antibody (0.01 nM-1 μM) with or without addition of hPDGF-BB (100 nM; 220-BB; R&D systems), and then incubated at 37° C. for 2 hours. The washing, incubation, and detection were performed in the same manner as the enzyme immunoassay described above.

[5] = target: T1, mPDGFR-β; test: Competition enzyme immunoassay against PRb-CN01-rabbit Fc on mPDGFR-β-hFc; format: binding; settings: competitor bispecific scFv-Cκ-scFv 100 nM; FIG. 19a
Method: It was carried out in substantially the same manner as the enzyme immunoassay method for antibody binding ability of Example 3, except that mPDGFR-β-hFc chimeric protein was coated with O/N on a microtiter plate at a temperature of 4° C. After incubating the blocking agent in each well, various concentrations of PRb-CN01-rabbit Fc (0.01 nM-1 μM) and PRb-CN01, control anti-HER2 antibody, and PRb-CN32 bispecific scFv-Cκ-scFv (100 nM) diluted in 3% BSA/PBS were reacted in each well at 37° C. for 2 hours. After washing the plate three times with PBST, the HRP-anti rabbit Fc antibody was reacted at 37° C. for 1 hour, and after washing, the reaction was performed using ABTS. Then, the absorbance was measured at 405 nm with a Multiscan Ascent microplate device (Labsystems, Helsinki, Finland) (FIG. 19A). FIG. 19a is the result of confirming the competition for the PRb-CN01 surrogate antibody.

cross-species binding, mPDGFR-β [1]	Molecule	cell binding in the presence of hPDGF-BB-biotin [2]	toxicity in A-431 cells compared to control anti-mCD154 x cotinine scFv-Cκ-scFv [3]	binding ability to hPDGFR-β in the presence of hPDGF-BB [4]	inhibition of binding of PRb-CN01-rabbit Fc to mPDGFR-β-hFc chimeric protein [5]
confirmed to bind	PRb-CN26: anti-hPDGFR-β scFv clone (VH SEQ ID NO 55, VL SEQ ID NO 56), tested as scFv-Cκ-anti-cotinine scFv bispecific antibody (antibody, V domains shown, VH of PRb-CN26; VL of PRb-CN26) VH: AVTLDESGGGLQTPGGGLSLVCKASGFTFSDRGIHWVRQAPGKGLEWVAGIGNTGSYTAYAPAVKGRATISRDNGQSTVRLQLNNLRAEDTATYYCAKRGFMDAGGIDAWGHGTEVIVSSTS VL: LTQPSSVSANPGETVKITCSGGGSYAGSYYYGWYQQKSPGSAPVTVIYDNTNRPSNIPSRFSGSLSGSTDTLTITGVQAEDEAVYFCGGYDGISDTGIFGAGTTLTVL	able to bind to hPDGFR-β in the presence of hPDGF-BB-biotin	equivalent cytotoxicity	not inhibited in the presence of hPDGF-BB	–
–	PRb-CN01: anti-mPDGFR-β chicken scFv clone (VH SEQ ID NO 7, VL SEQ ID NO 8), tested as scFv-Cκ-anti-cotinine scFv bispecific antibody (antibody, V domains shown, VH of PRb-CN01; VL of PRb-CN01) VH: AVTLDESGGGLQTPGGALSLVCKASGFTFSDRAMHWVRQAPGKGLEWVGLITNTGGSTNYGAAVKGRATISRDNGQSTVRLQLNNLRAEDTGTYYCTRGVGSWAHGGRIDAWGHGTEVIVSS VL: LTQPSSVSANPGETVKITCSGGSGSYGWFQQKSPGSAPVTVIYSNNQRPSDIPSRFSGSKSGSTNTLTITGVQAEDEAIYYCGTRDSSYVGIFGAGTTLTVL	–	–	–	inhibited
confirmed to bind	PRb-CN16: anti-hPDGFR-β scFv clone (VH SEQ ID NO 39, VL SEQ ID NO 40), tested as scFv-Cκ-anti-cotinine scFv bispecific antibody (antibody, V domains shown, VH of PRb-CN16; VL of PRb-CN16) VH: AVTLDESGGGLQTPGTALSLVCKASGFTFSSFNMAWVRQAPGKGLEFVGEISNTAGSTFYAPAVKGRATISRDNGQSTVRLQLNNLRAEDTAIYYCAKAAGTCYSHSCTGYIDAWGHGTEVIVSSTS VL: LTQPSSVSANPGETVKITCSGSSSSYGWYQQKSPGSAPVTLIYENNQRPSNIPSRFSGSKSGSTGTLTITGVQAEDEAVYYCGNADRSNSAGTFGAGTTLTVL	able to bind to hPDGFR-β in the presence of hPDGF-BB-biotin	equivalent cytotoxicity	not inhibited in the presence of hPDGF-BB	–

Molecule	cross-species binding, mPDGFR-β [1]	cell binding in the presence of hPDGF-BB-biotin [2]	toxicity in A-431 cells compared to control anti-mCD154 x cotinine scFv-Cκ-scFv [3]	binding ability to hPDGFR-β in the presence of hPDGF-BB [4]	inhibition of binding of PRb-CN01-rabbit Fc to mPDGFR-β-hFc chimeric protein [5]
PRb-CN32: anti-hPDGFR-β scFv clone (VH SEQ ID NO 47, VL SEQ ID NO 48), tested as scFv-Cκ-anti-cotinine scFv bispecific antibody (antibody, V domains shown, VH of PRb-CN32; VL of PRb-CN32) VH: AVTLDESGGGLQTPRGTLSLVCKASGFTFSSFNMFWVRQAPGKGLEFVAGISTTGRYTGYGSAVQGRGTISRDNGQSTVRLQLNNLRAEDTGTYYCAKSAGSTYSYWDSDAGLIDAWGHGTEVIVSSTS VL: LTQPSSVSANLGETVKITCSGGSNAGSYYYGWYQQKSPGSAPVTVIYSNNQRPSDIPSRFSGSTSGSTSTLTITGVQVDDEAVYFCGSGDSSSIAAFGAGTTLTVL	confirmed to bind	able to bind to hPDGFR-β in the presence of hPDGF-BB-biotin	equivalent cytotoxicity	not inhibited in the presence of hPDGF-BB	inhibited
